# According to patent US20040229309A1 (KUMAMOTO TECHNOLOGY AND INDUSTRY FOUNDATION, published 2004):
# Target: T1, mouse GANP protein (mouse, UniProt Q9WUU9 1-1971)
# T1 construct: Endogenous 210-kD protein in lysates, cytoplasmic and nuclear fractions of WEHI-231 cells and in mouse spleen B cells; The deduced polypeptide has 1971 amino acids; It is phosphorylated at serine/threonine in the in vitro kinase reactions; also called GANP antigen; 29-15 Ag
# Assay: co-immunoprecipitation from WEHI-231 lysate, Western blot with anti-MCM3; in vitro kinase assay and V8 cleavage mapping
# T1 sequence (Q9WUU9 other isoform, or with tags, fused parts or gaps limits assumed): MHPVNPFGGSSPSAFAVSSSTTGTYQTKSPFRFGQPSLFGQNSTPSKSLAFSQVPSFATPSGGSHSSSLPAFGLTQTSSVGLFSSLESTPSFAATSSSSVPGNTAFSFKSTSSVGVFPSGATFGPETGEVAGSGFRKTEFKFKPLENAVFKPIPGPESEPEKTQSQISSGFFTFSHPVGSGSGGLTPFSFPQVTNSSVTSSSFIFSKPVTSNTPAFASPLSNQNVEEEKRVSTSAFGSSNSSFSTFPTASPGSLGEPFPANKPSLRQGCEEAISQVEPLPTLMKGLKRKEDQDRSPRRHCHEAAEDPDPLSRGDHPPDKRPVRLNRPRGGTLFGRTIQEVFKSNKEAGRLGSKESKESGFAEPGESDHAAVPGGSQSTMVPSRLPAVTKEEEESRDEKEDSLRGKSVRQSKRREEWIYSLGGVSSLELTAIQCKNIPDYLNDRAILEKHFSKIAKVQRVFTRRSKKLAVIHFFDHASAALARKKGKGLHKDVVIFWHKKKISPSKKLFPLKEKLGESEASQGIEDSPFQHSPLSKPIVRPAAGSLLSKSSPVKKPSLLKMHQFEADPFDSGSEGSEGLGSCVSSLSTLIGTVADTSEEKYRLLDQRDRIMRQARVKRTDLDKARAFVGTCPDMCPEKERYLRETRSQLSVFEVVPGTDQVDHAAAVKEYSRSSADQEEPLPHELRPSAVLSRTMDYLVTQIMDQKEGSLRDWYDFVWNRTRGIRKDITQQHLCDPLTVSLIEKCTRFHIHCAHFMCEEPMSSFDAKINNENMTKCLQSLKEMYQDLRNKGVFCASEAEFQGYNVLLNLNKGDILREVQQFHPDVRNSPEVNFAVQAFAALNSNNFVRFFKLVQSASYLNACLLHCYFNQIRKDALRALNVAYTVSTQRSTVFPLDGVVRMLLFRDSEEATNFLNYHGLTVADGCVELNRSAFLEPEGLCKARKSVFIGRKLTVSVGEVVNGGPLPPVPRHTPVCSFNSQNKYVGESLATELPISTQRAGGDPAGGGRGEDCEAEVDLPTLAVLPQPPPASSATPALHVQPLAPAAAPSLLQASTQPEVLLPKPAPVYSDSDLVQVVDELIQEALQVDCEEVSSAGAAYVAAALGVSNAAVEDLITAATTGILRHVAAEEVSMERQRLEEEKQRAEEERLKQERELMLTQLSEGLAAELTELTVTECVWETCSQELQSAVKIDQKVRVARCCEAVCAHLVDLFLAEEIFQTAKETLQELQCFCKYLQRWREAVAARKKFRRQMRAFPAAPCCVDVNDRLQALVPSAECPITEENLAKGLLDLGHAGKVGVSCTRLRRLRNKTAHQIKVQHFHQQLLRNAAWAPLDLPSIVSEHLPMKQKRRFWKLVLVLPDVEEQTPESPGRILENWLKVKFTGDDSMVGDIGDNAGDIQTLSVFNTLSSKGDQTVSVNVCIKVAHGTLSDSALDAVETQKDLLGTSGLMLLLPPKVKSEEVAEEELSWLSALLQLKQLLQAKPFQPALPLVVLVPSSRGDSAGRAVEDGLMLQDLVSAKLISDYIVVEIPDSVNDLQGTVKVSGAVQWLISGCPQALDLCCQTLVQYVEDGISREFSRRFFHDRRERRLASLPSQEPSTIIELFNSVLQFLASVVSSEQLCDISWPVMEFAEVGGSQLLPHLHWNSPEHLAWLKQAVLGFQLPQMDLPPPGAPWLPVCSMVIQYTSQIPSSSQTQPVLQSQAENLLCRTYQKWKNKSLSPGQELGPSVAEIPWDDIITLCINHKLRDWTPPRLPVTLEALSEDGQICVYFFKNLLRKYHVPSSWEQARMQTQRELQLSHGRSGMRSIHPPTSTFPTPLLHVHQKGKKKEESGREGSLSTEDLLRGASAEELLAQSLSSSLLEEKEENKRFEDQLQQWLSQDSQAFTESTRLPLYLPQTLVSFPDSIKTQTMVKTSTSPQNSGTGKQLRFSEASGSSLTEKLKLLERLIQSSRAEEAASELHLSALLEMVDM
binder,measurement,value
"MCM3 protein (other, mouse, UniProt P25206 2-812, looked up, also called MCM3/P1) AGTVVLDDVELREAQRDYLDFLDDEEDQGIYQNKVRELISDNQYRLIVSVNDLRRKNEKRANRLLNNAFEELVAFQRALKDFVASIDATYAKQYEEFYIGLEGSFGSKHVSPRTLTSCFLSCVVCVEGIVTKCSLVRPKVVRSVHYCPATKKTIERRYSDLTTLVAFPSSSVYPTKDEENNPLETEYGLSVYKDHQTITIQEMPEKAPAGQLPRSVDVILDDDLVDKVKPGDRIQVVGTYRCLPGKKGCYTSGTFRTVLIACNVKQMSKDIQPAFSADDIAKIKKFSKTRSKDVFEQLARSLAPSIHGHDYVKKAILCLLLGGVERELENGSHIRGDINILLIGDPSVAKSQLLRYVLCTAPRAIPTTGRGSSGVGLTAAVTTDQETGERRLEAGAMVLADRGVVCIDEFDKMSDMDRTAIHEVMEQGRVTIAKAGIHARLNARCSVLAAANPVYGRYDQYKTPMENIGLQDSLLSRFDLLFIMLDQMDPEQDREISDHVLRMHQYRAPGEQDGDALPLGSSVDILATDDPDFTQDDQQDTRIYEKHDSLLHGTKKKKEKMVSAAFMKKYIHVAKIIKPTLTQESAAYIAEEYSRLRSQDSMSSDTARTSPVTARTLETLIRLATAHAKARMSKTVDLQDAEEAVELVQYAYFKKVLEKEKKRKKASEDESDLEDEEEKSQEDTEQKRKRRKTHAKDGESYDPYDFSEAETQMPQVHTPKTDDSQEKTDDSQETQDSQKVELSEPRLKAFKAALLEVFQEAHEQSVGMLHLTESINRNREEPFSSEEIQACLSRMQDDNQVMVSEGIVFLI",binding result,binds
